Data published in the supplement of paper PMC7877785.
± gives the uncertainty stated by the source.

Test: self-splicing fitness, log relative to wild type (ln ratio); higher = more splicing; Tetrahymena group I intron in knt gene, E. coli kanamycin selection, DiMSum; sequences stand for … in CUCUCU…GGAGGGAAAAGUUAUCAGGCAUGCACCUGGUAGCUAGUCUUUAAACCAAUAGAUUGCAUCGGUUUAAAAGGCAAGACCGUCAAAUUGCGGGAAAGGGGUCAACAGCCGUUCAGUACCAAGUCUCAGGGGAAACUUUGAGAUGGCCUUGCAAAGGGUAUGGUAAUAAGCUGACGGACAUGGUCCUAACCACGCAGCCAAGUCCUAAGUCAACAGAUCUUCUGUUGAUAUGGAUGCAGUUCACAGACUAAAUGUCGGUCGGGGAAGAUGUAUUCUUCUCAUAAGAUAUAGUCGGACCUCUCCUUAAUGGGAGCUAGCGGAUGAAGUGAUGCAACACUGGAGCCGCUGGGAACUAAUUUGUAUGCGAAAGUAUAUUGAUUAGUUUUGGAGUACUCGUGGUCG
In short: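 Pooled colonies went to amplicon sequencing on an Illumina HiSeq 2500 after six replicate transformations. The plates were LB agar with 100 μg/mL carbenicillin, 50 μM IPTG and 0.2% rhamnose, with or without 25 μg/mL kanamycin, incubated overnight at 37°C or 30°C. The E. coli BL21(DE3) library had all eight P1ex-region intron nucleotides randomised, the intron placed in the knt kanamycin-resistance gene on pET-22b(+). DiMSum fitness is the error-weighted combination of replicate fold changes, kanamycin against none, normalised to wild type.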

Row | Sequence | self-splicing fitness (ln) (30 °C) | self-splicing fitness (ln) (37 °C)
1 | CAGGAGCAAUAUUACGAAUA | -3.47 ± 0.29 | -1.49 ± 0.24
2 | CAGGAGCAAUAUUACGACAU | -3.768 ± 0.031 | -2.94 ± 0.046
3 | CAGGAGCAAUAUUACGACGG | -1.44 ± 0.054 | -0.588 ± 0.053
4 | CAGGAGCAAUAUUACGCCUC | -2.08 ± 0.23 | 
5 | CAGGAGCAAUAUUACGCGUU | -3.4 ± 0.17 | -2.01 ± 0.19
6 | CAGGAGCAAUAUUACGCUUA | -2.86 ± 0.21 | -2.02 ± 0.21
7 | CAGGAGCAAUAUUACGGCCU | -2.22 ± 0.24 | -1.42 ± 0.31
8 | CAGGAGCAAUAUUACGGCGU | -3.11 ± 0.2 | -2.84 ± 0.28
9 | CAGGAGCAAUAUUACGGCUA | -2.6 ± 0.19 | -1.34 ± 0.16
10 | CAGGAGCAAUAUUACGGGUG | -1.64 ± 0.082 | -0.707 ± 0.08
11 | CAGGAGCAAUAUUACGGUGG | -1.91 ± 0.14 | 0.146 ± 0.1
12 | CAGGAGCAAUAUUACGUAAC | -3.33 ± 0.26 | -2.74 ± 0.32
13 | CAGGAGCAAUAUUACGUAUC | -3.11 ± 0.23 | -3.54 ± 0.27
14 | CAGGAGCAAUAUUACGUCAG | -3.88 ± 0.4 | -1.17 ± 0.28
15 | CAGGAGCAAUAUUACGUCCU | -2.72 ± 0.24 | -2.08 ± 0.24
16 | CAGGAGCAAUAUUACGUCUG | -2.47 ± 0.22 | 
17 | CAGGAGCAAUAUUACGUGUG | -2.56 ± 0.13 | -0.614 ± 0.1
18 | CAGGAGCAAUAUUACGUUCU | -4.15 ± 0.2 | -2.05 ± 0.14
19 | CAGGAGCAAUAUUACGUUUC | -3.21 ± 0.28 | -3.11 ± 0.38
20 | CAGUAGCAAUAUUACGACUA | 0.402 ± 0.089 | 0.675 ± 0.11
21 | CAGUAGCAAUAUUACGAGUA | -2.34 ± 0.21 | -2.57 ± 0.31
22 | CAGUAGCAAUAUUACGAGUG | -0.988 ± 0.052 | -0.603 ± 0.076
23 | CAGUAGCAAUAUUACGAUAG | 0.00229 ± 0.079 | 0.167 ± 0.097
24 | CAGUAGCAAUAUUACGCAAA |  | -3.33 ± 0.43
25 | CAGUAGCAAUAUUACGCCAA | -2.85 ± 0.36 | -2.91 ± 0.31

Row | Sequence | self-splicing fitness (ln) (30 °C) | self-splicing fitness (ln) (37 °C)
26 | CAGUAGCAAUAUUACGCUGG | -2.5 ± 0.17 | -1.34 ± 0.19
27 | CAGUAGCAAUAUUACGGUCA |  | -1.71 ± 0.28
28 | CAGUAGCAAUAUUACGUCAG | -0.873 ± 0.07 | 0.623 ± 0.095
29 | CAGUAGCAAUAUUACGUCCG | -0.245 ± 0.24 | 1.29 ± 0.42
30 | CAGUAGCAAUAUUACGUCGA | -3.45 ± 0.25 | -1.49 ± 0.17
31 | CAGUAGCAAUAUUACGUCGC |  | -2.7 ± 0.4
32 | CAGUAGCAAUAUUACGUUAU | -2.82 ± 0.24 | -1.37 ± 0.2
33 | CAGUAGCAAUAUUACGUUGA |  | -2.14 ± 0.16
34 | CAUAAGCAAUAUUACGACAU | -3.64 ± 0.024 | -2.45 ± 0.037
35 | CAUAAGCAAUAUUACGACGG | -0.41 ± 0.072 | -0.00998 ± 0.088
36 | CAUAAGCAAUAUUACGAGGA | -3.13 ± 0.18 | -2.23 ± 0.21
37 | CAUAAGCAAUAUUACGAGUU | -3.62 ± 0.29 | -1.82 ± 0.14
38 | CAUAAGCAAUAUUACGAUUG | -2.62 ± 0.095 | -1.27 ± 0.11
39 | CAUAAGCAAUAUUACGCAUA | -2.48 ± 0.18 | -1.71 ± 0.24
40 | CAUAAGCAAUAUUACGCGAA | -2.82 ± 0.25 | -2.59 ± 0.34
41 | CAUAAGCAAUAUUACGCGCA | -1.4 ± 0.11 | -0.55 ± 0.11
42 | CAUAAGCAAUAUUACGCUGA | -2.49 ± 0.21 | -2.62 ± 0.28
43 | CAUAAGCAAUAUUACGCUUA | -3.59 ± 0.29 | -2.65 ± 0.26
44 | CAUAAGCAAUAUUACGGCAG | 0.0468 ± 0.075 | -0.545 ± 0.089
45 | CAUAAGCAAUAUUACGGCCU | -3.3 ± 0.37 | -2.79 ± 0.4
46 | CAUAAGCAAUAUUACGGGAC | -1.54 ± 0.18 | -2.23 ± 0.27
47 | CAUAAGCAAUAUUACGGGCG | -0.054 ± 0.08 | 0.166 ± 0.092
48 | CAUAAGCAAUAUUACGGGCU |  | -2.73 ± 0.25
49 | CAUAAGCAAUAUUACGGGGU | -4.17 ± 0.19 | -2.46 ± 0.15
50 | CAUAAGCAAUAUUACGGUUC | -3.7 ± 0.17 | -3.08 ± 0.19

Row | Sequence | self-splicing fitness (ln) (30 °C) | self-splicing fitness (ln) (37 °C)
51 | CAUAAGCAAUAUUACGUCCU | -3.78 ± 0.27 | -3.15 ± 0.19
52 | CAUAAGCAAUAUUACGUGUG | -3.56 ± 0.15 | -2.94 ± 0.17
53 | CAUAAGCAAUAUUACGUUAG | -1.13 ± 0.083 | -0.61 ± 0.11
54 | CAUAAGCAAUAUUACGUUAU | -4.62 ± 0.3 | -2.58 ± 0.16
55 | CAUAAGCAAUAUUACGUUCC | -3.94 ± 0.32 | 
56 | CAUCAGCAAUAUUACGAAUA | -1.48 ± 0.23 | -0.645 ± 0.17
57 | CAUCAGCAAUAUUACGACUA | -1.26 ± 0.13 | -0.0399 ± 0.13
58 | CAUCAGCAAUAUUACGAGCC | -3.22 ± 0.31 | -2.33 ± 0.41
59 | CAUCAGCAAUAUUACGAGGA | -3.13 ± 0.23 | -2.6 ± 0.19
60 | CAUCAGCAAUAUUACGAUGC | -4.35 ± 0.36 | -2.76 ± 0.33
61 | CAUCAGCAAUAUUACGCACC | -3.56 ± 0.14 | -1.61 ± 0.12
62 | CAUCAGCAAUAUUACGCAGC | -3.35 ± 0.14 | -1.29 ± 0.12
63 | CAUCAGCAAUAUUACGCCCU | -2.55 ± 0.36 | -1.54 ± 0.43
64 | CAUCAGCAAUAUUACGCCGG | -0.415 ± 0.086 | -0.327 ± 0.11
65 | CAUCAGCAAUAUUACGCGGU | -3.35 ± 0.18 | -2.39 ± 0.22
66 | CAUCAGCAAUAUUACGCUCG | -0.495 ± 0.064 | -0.134 ± 0.079
67 | CAUCAGCAAUAUUACGCUGC |  | -2.61 ± 0.3
68 | CAUCAGCAAUAUUACGCUUU | -2.23 ± 0.097 | -1.34 ± 0.1
69 | CAUCAGCAAUAUUACGGCCU | -3.29 ± 0.16 | -2.15 ± 0.16
70 | CAUCAGCAAUAUUACGGGGC | -4 ± 0.16 | -2.01 ± 0.15
71 | CAUCAGCAAUAUUACGUAUG | -2.16 ± 0.14 | -1.43 ± 0.15
72 | CAUCAGCAAUAUUACGUCCA | -1.71 ± 0.12 | -2.92 ± 0.22
73 | CAUCAGCAAUAUUACGUCGC | -3.05 ± 0.18 | -2.11 ± 0.23
74 | CAUCAGCAAUAUUACGUCUG | -0.675 ± 0.047 | 0.264 ± 0.059
75 | CAUCAGCAAUAUUACGUGCA | -3.14 ± 0.21 | -1.97 ± 0.2

Row | Sequence | self-splicing fitness (ln) (30 °C) | self-splicing fitness (ln) (37 °C)
76 | CAUCAGCAAUAUUACGUGCG | -0.149 ± 0.056 | 0.355 ± 0.075
77 | CAUCAGCAAUAUUACGUUAG | -0.472 ± 0.073 | -0.526 ± 0.08
78 | CAUGAGCAAUAUUACGAAUU | -4.16 ± 0.35 | -2.49 ± 0.23
79 | CAUGAGCAAUAUUACGCAGC | -3.08 ± 0.38 | -2.32 ± 0.34
80 | CAUGAGCAAUAUUACGCAUC | -2.04 ± 0.31 | -2.41 ± 0.33
81 | CAUGAGCAAUAUUACGCCCA | -1.49 ± 0.42 | 
82 | CAUGAGCAAUAUUACGCCGU | -3.93 ± 0.37 | -3.36 ± 0.26
83 | CAUGAGCAAUAUUACGCGAG | -2.19 ± 0.14 | -1.47 ± 0.18
84 | CAUGAGCAAUAUUACGCGUC |  | -2.76 ± 0.31
85 | CAUGAGCAAUAUUACGCUAU | -3.46 ± 0.3 | -1.99 ± 0.21
86 | CAUGAGCAAUAUUACGGAGA | -3.91 ± 0.35 | -2.58 ± 0.48
87 | CAUGAGCAAUAUUACGGAUU | -3.76 ± 0.21 | -2.52 ± 0.26
88 | CAUGAGCAAUAUUACGGCGG | -0.18 ± 0.094 | -0.278 ± 0.14
89 | CAUGAGCAAUAUUACGGCGU | -3.61 ± 0.47 | -1.97 ± 0.34
90 | CAUGAGCAAUAUUACGGGAA |  | -1.66 ± 0.25
91 | CAUGAGCAAUAUUACGGGCC |  | -1.98 ± 0.36
92 | CAUGAGCAAUAUUACGGGCU | -3.53 ± 0.16 | -2.11 ± 0.15
93 | CAUGAGCAAUAUUACGGUAA |  | -2.65 ± 0.34
94 | CAUGAGCAAUAUUACGUACU | -3.25 ± 0.18 | -2.59 ± 0.18
95 | CAUGAGCAAUAUUACGUCAU | -3.61 ± 0.24 | -1.24 ± 0.22
96 | CAUGAGCAAUAUUACGUCUC | -2.83 ± 0.22 | 
97 | CAUGAGCAAUAUUACGUGUC | -2.98 ± 0.17 | -1.82 ± 0.22
98 | CAUUAGCAAUAUUACGAAGG | -1.09 ± 0.089 | -0.624 ± 0.099
99 | CAUUAGCAAUAUUACGACAA | -2.37 ± 0.24 | -2.09 ± 0.32
100 | CAUUAGCAAUAUUACGACCA | -2.56 ± 0.42 | -1.67 ± 0.37
